Experimental data as given in patent publication US20100254978A1 (UCB, published 2010).
Several values for one entry are separate records, joined by “and”; a condition that tells them apart may be missing. Identical values can stand only once.

Assays:
[1] = target: T1, Human OX40 extracellular (185 aa) domain fused to the murine IgG2a Fc (232 aa) (Ancell No 513-020) (human; murine, UniProt P43489 29-214); assay: BIAcore 3000 SPR; antibody captured by immobilised anti-human F(ab′)2, human OX40-mFc titrated as analyte
T1 construct: extracellular domain; Bought reagent; also called recombinant OX40; human extracellular domain OX40; not shown: murine IgG2a Fc, 232 aa
T1 sequence (looked up): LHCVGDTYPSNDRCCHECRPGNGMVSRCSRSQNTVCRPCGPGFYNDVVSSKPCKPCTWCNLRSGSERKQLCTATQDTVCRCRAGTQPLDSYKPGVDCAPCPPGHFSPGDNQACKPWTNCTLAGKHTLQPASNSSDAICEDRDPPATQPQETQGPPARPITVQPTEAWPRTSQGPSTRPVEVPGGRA
Description: (§1) BIA (Biamolecular Interaction Analysis) was performed using a BIAcore 3000 (BIAcore AB). Affinipure F(ab′)₂ Fragment goat anti-human IgG, F(ab′)₂ fragment specific (Jackson ImmunoResearch) was immobilised on a CM5 Sensor Chip via amine coupling chemistry to a capture level of ≈4000 response units (RUs). HBS-EP buffer (10 mM HEPES pH 7.4, 0.15 M NaCl, 3 mM EDTA, 0.005% Surfactant P20, BIAcore AB) was used as the running buffer with a flow rate of 10 μl/min. A 10 μl injection of Fab′ at 0.5 μg/mL or Fab′-PEG at 50 μg/mL was used for capture by the immobilised anti-human IgG-F(ab′)₂. Human OX40 was titrated over the captured antibody at various concentrations (25 nM to 0.78 nM) at a flow rate of 30 μL/min. The surface was regenerated by a 10 μL injection of 40 mM HCl, followed by a 5 μL injection of 5 mM NaOH at a flowrate of 10 μL/min.
(§2) Background subtraction binding curves were analysed using the BlAevaluation software (version 3.2) following standard procedures. Kinetic parameters were determined from the fitting algorithm.

[2] = target: T2, Rhesus OX40 on activated rhesus CD4+ T cells (rhesus, UniProt P16003 26-458); assay: flow cytometry saturation binding on activated rhesus CD4+ T cells; n = 1
T2 sequence (P16003 26-458): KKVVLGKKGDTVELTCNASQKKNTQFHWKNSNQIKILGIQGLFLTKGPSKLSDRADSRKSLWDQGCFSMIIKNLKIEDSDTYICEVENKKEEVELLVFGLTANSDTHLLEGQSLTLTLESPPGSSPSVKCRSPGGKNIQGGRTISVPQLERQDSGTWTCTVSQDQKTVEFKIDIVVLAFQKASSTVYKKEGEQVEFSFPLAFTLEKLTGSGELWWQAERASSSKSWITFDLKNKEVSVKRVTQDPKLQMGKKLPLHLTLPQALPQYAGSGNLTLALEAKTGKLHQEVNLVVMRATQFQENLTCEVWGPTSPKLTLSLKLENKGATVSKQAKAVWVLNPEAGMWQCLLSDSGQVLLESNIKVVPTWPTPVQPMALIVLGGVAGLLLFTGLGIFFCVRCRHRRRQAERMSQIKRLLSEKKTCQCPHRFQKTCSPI

[3] = target: Cynomolgus OX40 on activated cynomolgus CD4+ T cells (cynomolgus) (UniProt P79185); assay: flow cytometry equilibrium binding on activated CD4+ T cells, against human cells as reference
[4] = target: T3, Human OX40 expressed on the surface of activated human CD4+OX40+ T cells (human, UniProt P43489 29-277); assay: flow cytometry saturation binding of FITC labelled antibody on activated human CD4+OX40+ T cells; one of 3 donors
T3 construct: whole, on cells; Also used as the target for the functional assays on human PBMC (endogenous OX40); also called cell surface OX40; cell-surface expressed OX40
T3 sequence (looked up): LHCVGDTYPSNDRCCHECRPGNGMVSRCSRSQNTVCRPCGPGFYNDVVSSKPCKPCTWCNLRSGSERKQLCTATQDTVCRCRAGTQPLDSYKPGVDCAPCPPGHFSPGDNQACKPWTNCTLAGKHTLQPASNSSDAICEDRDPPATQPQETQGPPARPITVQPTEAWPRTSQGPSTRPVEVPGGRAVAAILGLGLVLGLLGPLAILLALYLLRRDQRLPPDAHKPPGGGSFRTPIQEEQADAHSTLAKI
Description: Binding of FITC labelled A26Fab′-PEG to activated human CD4⁺OX40⁺ T cells was measured by flow cytometry across a 4-log concentration range.
(§3) PBMC were isolated by separation on a Ficoll gradient and activated with 1 μg/mL PHA-L for 3 days at 37° C., 5% CO₂, 100% humidity. CD4⁺ T cells were isolated by negative selection using magnetic beads (CD4⁺ T cell Isolation Kit II for Human; Miltenyi Biotec). […] The cells were washed prior to analysis by flow cytometry using a FACScalibur (Becton Dickinson). Two titration curves were produced, one with A26Fab′-PEG and a second with gA33 Fab′-PEG as a non-specific binding control. Linear regression analysis was used to subtract non-specific binding and the specific binding curve thus generated was analysed by non-linear regression (Graphpad Prism®) to determine KD.

[5] = target: Cynomolgus OX40 on activated cynomolgus CD4+ T cells (cynomolgus) (UniProt P79185); assay: flow cytometry saturation binding on activated cynomolgus CD4+ T cells; n = 3
[6] = target: T3, Human OX40 expressed on the surface of …; assay: flow cytometry saturation binding on activated human CD4+ T cells; mean, n = 3
Description: as §3

[7] = target: T3, Human OX40 expressed on the surface of …; assay: cell-based or functional assay
[8] = target: T3, Human OX40 expressed on the surface of …; assay: flow cytometry ligand blocking assay on activated human CD4+OX40+ T cells; competitor biotinylated OX40L (CD252 muCD8) at 2 µg/ml
Description: The capacity of A26Fab′-PEG to block the interaction between cell-surface expressed OX40 and recombinant OX40L was measured using a flow cytometry-based ligand blocking assay. Briefly, activated human CD4⁺OX40⁺ T cells were pre-incubated with a titration of A26Fab′-PEG. Recombinant OX40L was subsequently added to the cells and allowed to bind in the presence of A26 Fab′-PEG. The proportion of OX40L bound was then detected by flow cytometry using a labelled secondary reagent.
Methods: Inhibition of OX40L binding to human activated CD4⁺OX40⁺ T Cells by A26Fab′-PEG. PBMC were isolated by separation on a Ficoll gradient and activated with 1 μg/mL PHA-L for 3 days at 37° C., 5% CO₂, 100% humidity. 2.5×10⁵ cells were incubated in the presence of antibody (final concentration range 20 μg/mL-0.0003 μg/mL (229 nM-0.0035 nM)) for 10 minutes on ice. OX40L (biotinylated CD252 muCD8, Ancell) was added at a final concentration of 2 μg/ml and incubated for a further 30 minutes on ice. Cells were washed and OX40L binding detected by incubation with PE-labelled streptavadin (Jackson Immunoresearch) prior to analysis by flow cytometry using a FACScalibur (Becton Dickinson). gA33 Fab′-PEG was used as a non-specific control. The inhibition curve was analysed by non-linear regression (Graphpad Prism®) to determine the IC₅₀. The data shown is from one representative donor of two.

[9] = target: T3, Human OX40 expressed on the surface of …; assay: cell-based or functional assay; remark: listed apart in the source
[10] = target: T2, Rhesus OX40 on activated rhesus CD4+ T …; assay: flow cytometry equilibrium binding on activated CD4+ T cells, against human cells as reference
[11] = target: T1, Human OX40 extracellular (185 aa) …; assay: BIAcore 3000 SPR; antibody captured, human OX40-mFc as analyte; average of 4 determinations
Description: as §1, §2

[12] = target: T1, Human OX40 extracellular (185 aa) …; assay: BIAcore 3000 SPR; antibody captured, human OX40-mFc as analyte; average of 5 determinations
Description: as §1, §2

B1: A26Fab′-PEG (PEGylated A26 Fab′ fragment) (Fab, V domains shown)
VH: EVQLVESGGGLVQPGGSLRLSCAASGFTFTNYGIHWIRQAPGKGLEWVASISPSGGLTYYRDSVKGRFTISRDDAKNSPYLQMNSLRAEDTAVYYCATGGEGIFDYWGQGTLVTVSS
VL: DIQMTQSPSSLSASVGDRVTITCRATQSIYNALAWYQQKPGKAPKLLIYNANTLHTGVPSRFSASGSGTDSTLTISSLQPEDFATYYCQQYYDYPLTFGGGTKVEIKR
modifications: Cys 226 (linear numbering of SEQ ID NO:15): lysyl-maleimide group, each amino group of the lysyl residue linked to a methoxypoly(ethyleneglycol) of about 20,000 Da (total PEG about 40,000 Da)
notes: also called A26Fab′-PEGylated
B1 showed a Kd [1] of 0.0137 to 0.0503 nM, a Kd [2] of 1.2 nM and a fold drop off in affinity as compared to human [3] of under 2 fold. The Kd [4] was 1.19 nM and 1.07 nM and 1.05 nM, the Kd [5] was 1.86 nM and the Kd [6] was 1.11 nM. For the same binder, the “IC50 for inhibition of proliferation, Tetanus Toxoid response, donor 1” value [7] was 0.58 nM and 0.051 µg/mL, the “IC50 for inhibition of proliferation, Tetanus Toxoid response, donor 2” value [7] was 1.11 nM and 0.097 µg/mL and the IC50 [8] was 4.1 nM. The “House Dust Mite - Inhibition of IL-13 production (n = 3), Mean IC50 (nM)” value [9] was 1.23 nM, the “House Dust Mite - Inhibition of IL-13 production (n = 3), Mean IC50 (µg/ml)” value [9] was 0.107 µg/mL and the “Mixed Lymphocyte Reaction - Inhibition of Proliferation (n = 10), Mean IC50 (nM)” value [9] was 2.15 nM. The “Mixed Lymphocyte Reaction - Inhibition of Proliferation (n = 10), Mean IC50 (µg/ml)” value [9] was 0.188 µg/mL, the “Tetanus Toxoid - Inhibition of Proliferation (n = 2), Mean IC50 (nM)” value [9] was 0.845 nM and the “Tetanus Toxoid - Inhibition of Proliferation (n = 2), Mean IC50 (µg/ml)” value [9] was 0.0733 µg/mL. The “fold drop off in affinity as compared to human” value [10] was under 2 fold, the Kd [11] was 0.0313 nM and the koff [11] was 1.3e-05 s⁻¹. It also gave a kon [11] of 476000 M⁻¹ s⁻¹.

B2: A26 (humanised CA044-00026, graft gL8gH2) Fab′ fragment, unPEGylated (Fab, V domains shown)
VH: B1 VH
VL: B1 VL
notes: Produced in E. coli; the OmpA signal peptide is cleaved off; also called unPEGylated humanised Fab fragment A26
B2 was tested, and the Kd [1] was 0.019 to 0.0454 nM, the Kd [12] was 0.0296 nM and the koff [12] was 1.29e-05 s⁻¹. It also gave a kon [12] of 486000 M⁻¹ s⁻¹.
